Experiment [1] addresses K5:I-E^k. The experiment in a line: biomembrane force probe.
Experiment [2] deals with human CD3γε ECD (human, UniProt P09693;P07766, biotin (BirA) on the C-terminal biotinylation sequence). The experiment in a line: biomembrane force probe.
For experiment [3], the target named is mouse CD3γε ECD (Mus musculus (Mouse)., UniProt P11942;P22646, biotin (BirA) on the C-terminal biotinylation sequence). In words: micropipette adhesion frequency.
mouse CD3γε ECD, sequence (P11942 23-116, chain 1 of 2): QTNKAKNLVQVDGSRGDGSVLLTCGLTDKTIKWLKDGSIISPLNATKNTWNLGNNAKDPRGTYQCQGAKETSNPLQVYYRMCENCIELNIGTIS
mouse CD3γε ECD, sequence (P22646 23-108, chain 2 of 2): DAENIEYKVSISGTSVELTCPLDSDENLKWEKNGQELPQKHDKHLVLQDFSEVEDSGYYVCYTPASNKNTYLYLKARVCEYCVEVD

human CD3γε ECD, sequence (P09693 23-116, one chain of several): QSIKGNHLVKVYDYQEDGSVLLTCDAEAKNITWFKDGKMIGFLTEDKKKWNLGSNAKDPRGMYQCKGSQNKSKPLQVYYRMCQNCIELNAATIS

On to “2B4 TCR, wild type, fully assembled on the surface of T hybridoma cells (from UniProt P01849 1-136)”, for which, in experiment [1], the peak bond lifetime (at 15 pN) stood at 1.6 s.

B1: human CD3δε ECD (complex)
chain 1: FKIPIEELEDRVFVNCNTSITWVEGTVGTLLSDITRLDLGKRILDPRGIYRCNGTDIYKDKESTVQVHYRMCQSCVELDPATVA
chain 2: DGNEEMGGITQTPYKVSISGTTVILTCPQYPGSEILWQHNDKNIGGDEDDKNIGSDEDHLSLKEFSELEQSGYYVCYPRGSKPEDANFYLYLRARVCENCMEMD
modifications: biotin (BirA) on the C-terminal biotinylation sequence
For the molecule B1, the binding result in experiment [2] is “binds”.

B2: 2C11 full-length mAb (anti-CD3ε, clone 145-2C11) (antibody, V domains shown)
VH: EVQLVESGGGLVQPGKSLKLSCEASGFTFSGYGMHWVRQAPGRGLESVAYITSSSINIKYADAVKGRFTVSRDNAKNLLFLQMNILKSEDTAMYYCARFDWDKNYWGQGTMVTVSS
VL: DIQMTQSPSSLPASLGDRVTINCQASQDISNYLNWYQQKPGKAPKLLIYYTNKLADGVPSRFSGSGSGRDSSFTISSLESEDIGSYYCQQYYNYPWTFGPGTKLEIK
For the molecule B2, the binding result in experiment [3] is on record as “binds”.

Source of the values: paper doi:10.1101/2022.04.14.488403 (bioRxiv, 2022).
